Nine molecules from patent publication US11629364B2, “Methods for synthesizing anticoagulant polysaccharides” (OPTIMVIA, LLC, priority 2019, dated 2023) can be followed below.

To fix the notation:
B1: SEQ ID NO: 18: engineered aryl sulfate-dependent 6OST enzyme, mutant of isoform 1 of the mouse 6OST enzyme (protein)
chain: MKYYFPVRELERSLRFDMKGDDVIVFLHIGHTGGTTFGRHLVQNVRLEVPCDCRPGQKKCTCYRPNRRETWLFSRFSTGWSCGTNADWTELTNCVPGVLDRRDPAGLRSPRKFYYITLLRDPVSRYLGGWRHHQRGGTNKTSLHMCDGRTPTPEELPPCYEGTDWSGCTLQEFMDCPYNLANNRQVRMLADLSLVGCYNLSFIPESKRAQLLLESAKKNLRGMAFFGLTEFQRKTQYLFERTFNLKFIRPFMQYNSTRAGGVEVDEDTIRHIEELNDLDMQLYDYAKDLFQQRYQYKRQLERREQRLRNREE
modifications: Amino acid sequence encoding for engineered arylsulfate-dependent 6-O-sulfotransferase variant 1
notes: engineered aryl sulfate-dependent 6OST enzyme, mutant of isoform 1 of the mouse 6OST enzyme
B2: SEQ ID NO: 22: engineered aryl sulfate-dependent 6OST enzyme, mutant of isoform 1 of the mouse 6OST enzyme (protein)
chain: MKYYFPVRELERSLRFDMKGDDVIVFLHIGHTGGTTFGRHLVQNVRLEVPCDCRPGQKKCTCYRPNRRETWLFSRFSTGWSCGSHADWTELTNCVPGVLDRRDPAGLRSPRKFYYITLLRDPVSRYLSGWRHHQRGGANKTSLHMCDGRTPTPEELPPCYEGTDWSGCTLQEFMDCPYNLGNNRQVRMLADLSLVGCYNLSFIPESKRAQLLLESAKKNLRGMAFFGLTEFQRKTQYLFERTFNLKFIRPFMQYNSTRAGGVEVDEDTIRHIEELNDLDMQLYDYAKDLFQQRYQYKRQLERREQRLRNREE
modifications: Amino acid sequence encoding for engineered arylsulfate-dependent 6-O-sulfotransferase variant 3
notes: as for B1
B3: SEQ ID NO: 20: engineered aryl sulfate-dependent 6OST enzyme, mutant of isoform 1 of the mouse 6OST enzyme (protein)
chain: MKYYFPVRELERSLRFDMKGDDVIVFLHIGHTGGTTFGRHLVQNVRLEVPCDCRPGQKKCTCYRPNRRETWLFSRFSTGWSCGTRADWTELTNCVPGVLDRRDPAGLRSPRKFYYITLLRDPVSRYLSHWRHTQRGGANKTGLHMCDGRTPTPEELPPCYEGTDWSGCTLQEFMDCPYNLGNNRQVRMLADLSLVGCYNLSFIPESKRAQLLLESAKKNLRGMAFFGLTEFQRKTQYLFERTFNLKFIRPFMQYNSTRAGGVEVDEDTIRHIEELNDLDMQLYDYAKDLFQQRYQYKRQLERREQRLRNREE
modifications: Amino acid sequence encoding for engineered arylsulfate-dependent 6-O-sulfotransferase variant 2
notes: as for B1
B4: SEQ ID NO: 48: mutant of the full-length pig 6OST enzyme, SEQ ID NO: 18 mutations (protein)
chain: MRRRRAGSRTMVERASKFVLVVAGSACFMLILYQYAGPGLSLGAPGGRAPPDDLDLFPTPDPHYEKKYYFPVRELERSLHFDMKGDDVIVFLHIGHTGGTTFGRHLVQNVRLEVPCDCRPGQKKCTCYRPNRRETWLFSRFSTGWSCGTNADWTELTNCVPGVLDRRDPAALRTPRKFYYITLLRDPVSRYLGGWRHHQRGGTNKTSLHMCDGRTPTPEELPPCYEGTDWSGCTLQEFMDCPYNLANNRQVRMLADLSLVGCYNLSFIPEGKRSQLLLESAKKNLRGMAFFGLTEFQRKTQYLFERTFNLKFIRPFMQYNSTRAGGVEVGEDTIRRIEELNDLDMQLYDYARDLFQQRYQYKRQLERRQQRLRSREERLLHRAKEAPPRGDTEEPGRVPTEDYMSHIIEKW
modifications: Amino acid sequence encoding for engineered arylsulfate-dependent 6-O-sulfotransferase variant 9
B5: SEQ ID NO: 49: mutant of the full-length pig 6OST enzyme, SEQ ID NO: 20 mutations (protein)
chain: MRRRRAGSRTMVERASKFVLVVAGSACFMLILYQYAGPGLSLGAPGGRAPPDDLDLFPTPDPHYEKKYYFPVRELERSLHFDMKGDDVIVFLHIGHTGGTTFGRHLVQNVRLEVPCDCRPGQKKCTCYRPNRRETWLFSRFSTGWSCGTRADWTELTNCVPGVLDRRDPAALRTPRKFYYITLLRDPVSRYLSHWRHTQRGGANKTGLHMCDGRTPTPEELPPCYEGTDWSGCTLQEFMDCPYNLGNNRQVRMLADLSLVGCYNLSFIPEGKRSQLLLESAKKNLRGMAFFGLTEFQRKTQYLFERTFNLKFIRPFMQYNSTRAGGVEVGEDTIRRIEELNDLDMQLYDYARDLFQQRYQYKRQLERRQQRLRSREERLLHRAKEAPPRGDTEEPGRVPTEDYMSHIIEKW
modifications: Amino acid sequence encoding for engineered arylsulfate-dependent 6-O-sulfotransferase variant 10
B6: SEQ ID NO: 50: mutant of the full-length pig 6OST enzyme, SEQ ID NO: 22 mutations (protein)
chain: MRRRRAGSRTMVERASKFVLVVAGSACFMLILYQYAGPGLSLGAPGGRAPPDDLDLFPTPDPHYEKKYYFPVRELERSLHFDMKGDDVIVFLHIGHTGGTTFGRHLVQNVRLEVPCDCRPGQKKCTCYRPNRRETWLFSRFSTGWSCGSHADWTELTNCVPGVLDRRDPAALRTPRKFYYITLLRDPVSRYLSGWRHHQRGGANKTSLHMCDGRTPTPEELPPCYEGTDWSGCTLQEFMDCPYNLGNNRQVRMLADLSLVGCYNLSFIPEGKRSQLLLESAKKNLRGMAFFGLTEFQRKTQYLFERTFNLKFIRPFMQYNSTRAGGVEVGEDTIRRIEELNDLDMQLYDYARDLFQQRYQYKRQLERRQQRLRSREERLLHRAKEAPPRGDTEEPGRVPTEDYMSHIIEKW
modifications: Amino acid sequence encoding for engineered arylsulfate-dependent 6-O-sulfotransferase variant 11
B7: SEQ ID NO: 46: mutant of residues 67-377 of the pig 6OST enzyme, SEQ ID NO: 20 mutations (protein)
chain: MKYYFPVRELERSLHFDMKGDDVIVFLHIGHTGGTTFGRHLVQNVRLEVPCDCRPGQKKCTCYRPNRRETWLFSRFSTGWSCGTRADWTELTNCVPGVLDRRDPAALRTPRKFYYITLLRDPVSRYLSHWRHTQRGGANKTGLHMCDGRTPTPEELPPCYEGTDWSGCTLQEFMDCPYNLGNNRQVRMLADLSLVGCYNLSFIPEGKRSQLLLESAKKNLRGMAFFGLTEFQRKTQYLFERTFNLKFIRPFMQYNSTRAGGVEVGEDTIRRIEELNDLDMQLYDYARDLFQQRYQYKRQLERRQQRLRSREE
modifications: Amino acid sequence encoding for engineered arylsulfate-dependent 6-O-sulfotransferase variant 7
B8: SEQ ID NO: 47: mutant of residues 67-377 of the pig 6OST enzyme, SEQ ID NO: 22 mutations (protein)
chain: MKYYFPVRELERSLHFDMKGDDVIVFLHIGHTGGTTFGRHLVQNVRLEVPCDCRPGQKKCTCYRPNRRETWLFSRFSTGWSCGSHADWTELTNCVPGVLDRRDPAALRTPRKFYYITLLRDPVSRYLSGWRHHQRGGANKTSLHMCDGRTPTPEELPPCYEGTDWSGCTLQEFMDCPYNLGNNRQVRMLADLSLVGCYNLSFIPEGKRSQLLLESAKKNLRGMAFFGLTEFQRKTQYLFERTFNLKFIRPFMQYNSTRAGGVEVGEDTIRRIEELNDLDMQLYDYARDLFQQRYQYKRQLERRQQRLRSREE
modifications: Amino acid sequence encoding for engineered arylsulfate-dependent 6-O-sulfotransferase variant 8
B9: SEQ ID NO: 45: mutant of residues 67-377 of the pig 6OST enzyme, SEQ ID NO: 18 mutations (protein)
chain: MKYYFPVRELERSLHFDMKGDDVIVFLHIGHTGGTTFGRHLVQNVRLEVPCDCRPGQKKCTCYRPNRRETWLFSRFSTGWSCGTNADWTELTNCVPGVLDRRDPAALRTPRKFYYITLLRDPVSRYLGGWRHHQRGGTNKTSLHMCDGRTPTPEELPPCYEGTDWSGCTLQEFMDCPYNLANNRQVRMLADLSLVGCYNLSFIPEGKRSQLLLESAKKNLRGMAFFGLTEFQRKTQYLFERTFNLKFIRPFMQYNSTRAGGVEVGEDTIRRIEELNDLDMQLYDYARDLFQQRYQYKRQLERRQQRLRSREE
modifications: Amino acid sequence encoding for engineered arylsulfate-dependent 6-O-sulfotransferase variant 6

A short description of the first series: 6OST activity: 6-O sulfated products detected by LCMS after lyase digestion. In kind it is biochemical. The conditions noted are these: NCS or PNS as sulfo donor; D0S6 and D2S6 disaccharides. On the procedure:
A study was conducted in accordance with embodiments of the present disclosure to confirm 6OST activity of enzymes comprising the amino acid sequence of SEQ ID NO: 18, SEQ ID NO: 20, or SEQ ID NO: 22 by detecting the presence of 6-O sulfated polysaccharide products as a result of their sulfotransfer reaction, using a similar LCMS procedure as in Example 3, except that the sulfo acceptor polysaccharide was prepared by chemically 6-O desulfating commercially available heparin (CAS code: 9041-08-1, available from Millipore Sigma), according to the procedure provided by Kariya, Y., et al., (2000) J. Biol. Chem. 275 (34):25949-25958).
For B1, the “6OST sulfotransferase activity by sulfo group donor” value was “active when NCS was the sulfo group donor”. Still for that read-out and setting: the entry for B2 is “active when PNS was the sulfo group donor”; for B3 it is “active when NCS was the sulfo group donor”.

The same series, now with this note: comparing peak area percentages of D0S6 and D2S6 disaccharides.
Turning to B2, the “relative 6OST activity among engineered enzymes” value is recorded as “the most active”.

Still in this series, the particulars now being: procedures of Example 4; expected.
As for B4, the “6OST activity: N,2,6-HS products by MS” value was “confirm the presence of N,2,6-HS products”. As for B5, the “6OST activity: N,2,6-HS products by MS” value was “confirm the presence of N,2,6-HS products”. Same read-out and setting: in the case of B6 it was “confirm the presence of N,2,6-HS products”; in that of B7, “confirm the presence of N,2,6-HS products”. The same measure, in the same setting: in the case of B8 it was “confirm the presence of N,2,6-HS products”; in that of B9, “confirm the presence of N,2,6-HS products”.
